Data reported in the nanobody polyreactivity screen of Harvey et al. (2022).

Assay: yeast display, Sf9 membrane polyspecificity reagent, FACS + sequencing; frameworks hold sequencing errors
Outline: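 Synthetic nanobody libraries on Saccharomyces cerevisiae BJ5465 were galactose-induced for 36–48 hours, stained 1 hour at 4 °C with 10% biotinylated, detergent-solubilized Sf9 membrane reagent and enriched on streptavidin microbeads. FACS then separated cells into low and high (top ~1%) gates by anti-HA (expression) and streptavidin (reagent binding) fluorescence. Genes were colony-PCR amplified, MiSeq 2 × 250 sequenced and CDR-length filtered. A clone's polyreactivity label is that of its gate of origin.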

Sequence	polyreactivity (PSR sort gate)
QVQLVESGGGLVQAGGSLRLSCAASGRIFGTNAMGWYRQAPGKERELVATITRGGGNTYYADSVKGRFTISRDNAKNTVYLQMNSLKPEDTAVYYCAAKFHRFAWYSHYDYWGQGTQVTVSS	low polyreactivity
QVQLVESGRGLVQAGGSLRLSCAASGIILGRYAKGWYRQAPGKERELVAVITGDGSTTYADSVKGRFTISRDNAKNTVYLQMNSLKPEDTAVYYCNAAVEGSLNGYEYWGQGTQVTVSS	low polyreactivity
QVQLVESGGGLVQAGGSLRLSCAASGSTFYVYAMGWYRQAPGKDRELVAAITFSGGSTYADSVKGRFTISRDNAKNTVYLQMNSLKPEDTAVYYCATDERGRYTVVYVDEFLYDYWGQGTQVTVSS	low polyreactivity
QVQLVESGGGLVQAGGSLRLSCAASGSTFLYYTMGWYRQAPGKERELVATISRDGSTKYADSVKGRFTISRDNAKITVYLQMNSLKPEDTAVYYCAAARDSIVYGQYDYWGQGTQVTVSS	low polyreactivity
QVQLVESGGGLDQAGGSLPLSCAASGSIFYVYTMGTYRQAPGKERELVAAISFRSGSTYYADSVKGRFTISRDNAKNTVYLPMNSLKPEDTAVYYCAKPIPRGRNQLFNYWGQGTEVTVSS	high polyreactivity
QVQLEESGGGLVQAGGSLRLSCAASGSTFLLNAMGWYRQAPGKERELVAAITSSGGTNYADSVKGRFTISRDNAKNTVYLQMNSLKPEDTAVYNCYTRYSPGYQGTEVDYWGQGTQVTVSS	low polyreactivity
QVQLVESGGGLVQAGGSLRLSCAASGSTSDTNVMGWYRQPPAKERELVAAISNDDDRTYYADSVKGRFTSSRDNAKNTVYLQMNSVKPEDTAVYYCATADDYPGDDYLEGGYWGQGTQVTVSS	low polyreactivity
QDQLVESGGGLVQAGGSLRLSCAASGRTFTRYTMGRYRPAPVKERELVAAISSGGSTTYADSVKGRFTISRDNAKNTVYLQMNSLKPEDTAVYYCAAGLVYRGYRRDYWGQGTQVTVSS	low polyreactivity
QVQLVESGGGLVQAGGSLRLSCAASGSTFSDYAMGWYRQAPGKERELVAAISDSGSGTYYADSVKGRFTISRDNAKNTVYLQMNSLKPEDTAVYYCNTDPRFAMDWGQGTQVTVSS	low polyreactivity
QVQLVESGGGLVQAGGRLRLSCAASGRIFVVYAMGWSRQAPGKERELVAAISKRGGSTYYADSVKGRFTISRDNAKYTVYLQMNTLKPEDTAVYYCAAGRYKSDLMDYWGQGTQVTVSS	high polyreactivity
QVQLVESGGGLVQAGGSLRLSCAASGFTFQNYAMGWYRQAPGKERELVAAISWGGGSTYYADSVKGRFTISRDNAQNTVYLQMNSLKPEDTAVYYCNAYEYLSAGYDYWGQGTQVTVSS	low polyreactivity
QVQLVESGGGLVQAGGSLRLSCAASGSTIGRNAMGWDRQAPGNERELVASITDSSGSPNYADSVKGRFTISRDNAKNSVYLQMHSLKPEDTAVYYCATGYYYYTRYRYHTKYYSWGQGTQVTVSS	high polyreactivity
QVQLVESGGGLVQAGGSLRLSCAASGSIFTWYTMGWYRQAPGKERELVAAISWSGGRTYYADSVKGRFTISRDNAKHTVYLQMNSLKPEDTAVYYCAASAYGRPPFDYWGQGTQVTVSS	high polyreactivity
QVQLVETGGGLVQAGGSLRLSCADSGFIFRYYAMGRYRQAPGKERELVAAISSRGASTYYADSVKGRFTISRDNEKNTVYLQMNRLKPEDTAVYDCNARFNRASEMDYWGQGTQVTVSS	high polyreactivity
QVQLVESGGGLVQAGGSLRLSCAASGLIFIQYAMGWYRQAPGKEREFVAAISWSGTSTHYADSVKGRFTISRDNAKNTVYFQMNSLKPEDTAVYYCAAAKTGRGRGTTGYGYWGQGTLVTVSS	high polyreactivity
QVHLVESGGGKVQAGGSLRLSCAASGGTFYQYAMGWYRQAPGKESELVAAITRSGGRTYYADSVKGRFTISRDNAKNTVYFQMNSLKPEDTAVYYCAAEDVGPPDFYYWGQGTQVNVSS	high polyreactivity
QVQLQESGGGLVQAGGSPRLSCAASDNIFPDSVMCWYRQAPGKERELVATIGFGATTNYADSVKGRFTISRDNAKNTVYLQMNSLKPEDTAVYYCAADPLNYEYFCYGGQGTQVTVSS	low polyreactivity
QVQLVESGGGLVQAGGSLRLSCAASGRIFKGYAIGWYRLAPGKERELVASITWRGGTTYYADSVKGRFTISRDNAKNTVYLQMNSLKPEDTAVYYCATTRYPRSYQEFGYWGQGTQVTVSS	high polyreactivity
QVQLVESGGGLVQAGGSLRLSCAASGSIIWLYAMGWYRQAPGKERELVAAISSGGSTYYADSVKGRFTISRDNAKNTVYLQMNSLKPEDTAVYYCNVDYWQPWQYDYWGQGTQVTVSS	high polyreactivity
QVQLVESGGGLVQAGGSLRLSCAASGLIFYRYAMGWYRQAPGKERELVAAITASGGTTYYADSVKGRFTISRDNAKNTVYLQMNSLKPEDTAVYDCASPYTYWRRIGVDYDYWGQGTQVTVSS	high polyreactivity
QVQLVDSGGGLVQAGGSLRLSCAASGITSHYYAMGWYRQAPGKERELVAAITSSGSTYYADSVKGRFTISRDNAKNTVYLQMNSLKPEVTAVYYCATTVWYKKAPYPDGDYWGQGTQVTVSS	low polyreactivity
QVQLVESGGGLVQAGGSLRLSFAASGFTFVNYAMGWYRQAPGKDRELVAAIRRSGSRTYYADSVKGRFTISRDKAKNTVYLQKNSLKPEDTAVYYCAAVWYSLYGNWGQGNQVTVSS	low polyreactivity

Sequence	polyreactivity (PSR sort gate)
QVQLVESGGGLVQAGGSLRLSCAASGYTFAGNAMGWYRQATGKERELVAAISRSGGRTYYADSVKGRFTISRDNAKNTVYLQMNSLKPEDTAVYYCAAYFPRTLFEFGYWGQGTQVTVSS	high polyreactivity
QVQLVESGGGLVQAGGSLRLSCAASGFTFGNYAMGWYRQAPGKERELVAAITRGGSTYYADSVKGRFTISRDNAKNTVYLQMKSLKPEDTAVYYCAARYFFWFRPSEYYYWGQGTQVTVSS	high polyreactivity
QVQLLESGGGIVQAGGILRLSCAASGITIGWYAMGWYRPAPGKERELVASISSSGSTNYADSVKGLFTISRDNAKNTFYLQMNSMKPEDTAVYYCNKDYLLRHYYIYVIEGDYWGQGTQVTVSS	low polyreactivity
QVQLVESGGGIVQAGGSLRLRCAASGLIFAYNAMGGDRQAPGKEREFVAAINSGGDSTYYADCVKGRFTISRDNAKNTVYLQMNSLKPEDTAVYYCAAVSGNKRYYYWGHGTQVTVSS	low polyreactivity
QVHHVESAGGLVQAGGILRLSCAASGRTFGANAMGWYRQPPVKERELVAAISKSGGRTYYADSVTGRFTISRDNAKNTVYLQMNSLKPEDTEVYYCNKVMCVSQAGGFDYWGQGTQVTVSS	high polyreactivity
QVQLVESGGGLVQAGGSLRLSCAASGFTSEYNAMGWYRQAPGNERELVAAITSGGSTYYADSVEGRFTISRDNAKNTVYLQMNSLKPEDTAVDYCAADYYVWGYLLEYGGQGTQVTVSS	high polyreactivity
QVQLVESGGGLVQAGGSLRLSCAASGRTFISYAMGWYRQAPGKERELVAGISRGGSTYYADSVKGRFTISRDNAKNTVYLQMNSLKPEDTAVYYCAARRWISSHSYKYGYWGQGTQVTVSS	high polyreactivity
QVQLVESGGGLVQAGGSLRLSCAASGLIFGVNAMGLYRQAPGTESELVAAITSRGGSTYYADSVKGRFTISRDNAKNTVYLQMNSLKPEDTAVDYCAAKYAYYEPYSWRPQRTYNYWGQGTQVTVSS	high polyreactivity
QVQLVESGGGLVQAGGSLRLSCAASGSTFGGYAKGWYRQAPGKERELVAAMSQSGTRTYYADSVKGRFTISRDKAKNTVYLQMNSLKPEDTAVYYCAAEKRFRKYDNWGQGTQVTVSS	high polyreactivity
QVQLVESGGGLVQAGGSLRLSCAASGSTFLYYAMGWYRQAPGKEREFVAAISKGSGRTYYADSVKGRFTISRDNAKNTVYLQLNSLKPEDTAVYYCAAAKWRGYPYQSDYWGQGTQVTVSS	high polyreactivity
QVQLVESGGGLVHAGGSLRLSCAASGRTIGYYAMGWYRQAPGKERELVAAISWSGGSTYYADSVKGRFTISRDIAKNTVYLQMNSLKPEATAVYYCAAKYSFRAAHYYYWGQGTQVTVSS	high polyreactivity
QFQLVESGGGLVQAGGSLRLSCAASAGYALGGYRQAPGKERELVAVINYSGGSTYYADSVKGRFTISRDNAKNTVYLQMNSLKPEDTAVYYCAAVYRRRYYWGQGTQVTVSS	high polyreactivity
QVQLVESGGGLVQAGGSLRLSCAASGRIFVRNAMGWYRQAPGKERELVADITNGGSTNYADSVKGRFTITRDNAKNTVYLQMNSLKPEDTAVYYCAADTLGVYDGDYWGQVTQVTVSS	low polyreactivity
QVQLVESGGGLVQAGGSLRLSCAASGIISIFNVMGWYRQAPGKEMEWVASITGRGGSTFYADSVKGRFTISRDNAKNTVDLLMNSMKPEATAVYFCATDNGYTYPVTGLYDYWGQGTQVTVSS	low polyreactivity
QVQLVESGGGLVQAVGSLRLSCAASGGTIDIYAMGWYRQAPAKERELVARISYSSGSTHYADSVKGRFTNSRDNAKNTVYLQMNSLKPEDTAVYYCAATAYWFYAKYYYWGQGTQVTVSS	high polyreactivity
QVQLVESGGGLVQAGGSLRLSCATSGSTFNDYDMGWYRQAPGKERELVAAISSSVSTYYADSVKGRFTISRDNAKNTVYLQMNSLKQEDTAVYYCAADYTGVCRYDYWGQGTLVTVSS	low polyreactivity
QVQLVESGGGLFQAGGILRLSCAASGRTFHRNAMGWYRLAPGKERELVAAITGDGRTNYADSVKGRFTISRDNAKNTVYLQMNSLKPEDTAVYYCAARFSYRSYDYWGQGSQVTVSS	low polyreactivity
QVQLVESGGGLVQAGGSLRLSCAASGSIFVNYAMGWYRQAPGKERELVAAISWRGGITYADSVKGRFTISRDNAKNTVYLQLNSLKPEDTAVYYCARRGYGAGPSYRLGDYWGQGTQVTVSS	low polyreactivity
QVQLVESGGGLVQAGGSLRLSCAASGSIFRYYAMGWYRQAPGKERELVAAISSRGGTTHYADSVKGRFTISRDNAKNTVYLQMNSLKPEDTAVYYCAADYYLATNPAPLAAGRGYWGQGTQVTVSS	high polyreactivity
QVQRVESGGGLVQAGGSLRLSCAASGITFSRYAMGWYRPAPGKERELVAAISRSGTRTYYADSVKGRFTISRDNAKNTVYLQMNSLKPEDSAVYYCAAESFASSFDYWGQGTQVTVSS	high polyreactivity
QVQLVETGGGLVLAGGSLRLSCAASGSTFRLYAMGWYRQAPGTARELVAAITSGGSTYYADAVKGRFTISRDNAKNTVYLQMNSLKPEDTAVYYCARLAGDSTYWWWLYLITQRDDYWGQGTQVTVSS	low polyreactivity
